Molecular target: T1, human epidermal growth factor receptor 3 (HER3) (human, UniProt P21860 20-1342)
T1 construct: whole, on cells; also called ErbB3; HER3 protein
Assay: flow cytometry on HCC1569 cells, PE-coupled anti-human secondary antibody; one-site specific binding fit (GraphPad Prism)
Experimental: A human breast cancer cell line HCC1569 (CRL-2330) from ATCC was cultured in an RPMI1640 medium (purchased from Invitrogen Corp., containing 10% […] (manufactured by Invitrogen Corp.) and 2 mM L-glutamine (manufactured by Invitrogen Corp.)). The cells were dissociated from the culture plate using ACCUTASE® SOLUTION (Millipore Corp., SCR005) or EDTA (5 mM, phosphate buffered saline (PBS, 137 mM sodium chloride, 2.7 mM potassium chloride, 1.47 mM potassium dihydrogen phosphate, and 10.5 mM disodium hydrogen phosphate)), and the number of living cells was measured by trypan blue treatment. The same numbers of cells suspended in a fluorescence-activated cell sorting (FACS) buffer (PBS containing 3% FBS and 0.004% sodium azide) were inoculated to 96-well U-bottom plates, and the cells were precipitated by centrifugation and suspended in 100 uL of an ice-cooled antibody or antibody-drug conjugate dilution or FACS buffer.
The cells of each group were reacted with a primary antibody dilution for 45 minutes on ice and then washed with a FACS buffer. […]
FIG. 3 and Table 1 show the mean fluorescence intensity of HCC1569 treated with serial dilutions of U1-59 or each antibody-drug conjugate. The equilibrium binding affinity KD and the maximum binding strength Bmax were calculated using GraphPad Prism software.

Binder	Bmax	Kd [nM]
Antibody-drug conjugate (3) (antibody, human IgG1, kappa, V domains shown, may carry one drug-linker molecule (L1 species of Common procedure F); position not given; drug-linker -(Succinimid-3-yl-N)-CH2CH2CH2CH2CH2-C(=O)-GGFG-NH-CH2CH2CH2-C(=O)-(NH-DX) (exatecan) on cysteines by thioether bond at the reduced disulfide bonds of the hinge part; positions not given; average 4.9 drug molecules per antibody (Common procedure E), also called ADC (3)) VH: QVQLQQWGAGLLKPSETLSLTCAVYGGSFSGYYWSWIRQPPGKGLEWIGEINHSGSTNYNPSLKSRVTISVETSKNQFSLKLSSVTAADTAVYYCARDKWTWYFDLWGRGTLVTVSS VL: not shown	29000	
Antibody-drug conjugate (13) (antibody, human IgG1, kappa, V domains shown, may carry one drug-linker molecule (L1 species of Common procedure F); position not given; drug-linker -(Succinimid-3-yl-N)-CH2CH2CH2CH2CH2-C(=O)-GGFG-NH-CH2-O-CH2-C(=O)-(NH-DX) (exatecan) on cysteines by thioether bond at the reduced disulfide bonds of the hinge part; positions not given; average 6.2 (Common procedure E) or 7.0 (Common procedure F) drug molecules per antibody, also called ADC (13)) VH: QVQLQQWGAGLLKPSETLSLTCAVYGGSFSGYYWSWIRQPPGKGLEWIGEINHSGSTNYNPSLKSRVTISVETSKNQFSLKLSSVTAADTAVYYCARDKWTWYFDLWGRGTLVTVSS VL: not shown		2.73

— patent publication US20190151328A1 (published 2019)
